Data on 11 molecules can be found in patent US20170037425A1, “METHOD FOR IMPROVING PLANT TRAIT” (SHANGHAI INSTITUTES FOR BIOLOGICAL SCIENCES, CHINESE …, priority 2012, published 2017).

The nature of the assay: In vitro H2O hydrolysis and oxygen evolution catalyzed by LEAT protein under light. The class given is biochemical. Also on record: key to O2 evolution activity: +: similar O2 evolution activity as that of YFP; ++: higher O2 evolution activity than that of YFP by at least one order of magnitude; weak: lower activity than that of YFP by at least one order of magnitude. As to conditions: water hydrolysis and O2 evolution under light, relative to YFP. As to the method: 1.85 ml of 50 mM phosphate buffer (pH6.5) was added in the reaction vessel of Clark-type oxygen electrode, then LEAT proteins (at a final concentration of 0.02-1 μg/ml) and 400 μM 2,3,5-trimethyl-1,4-benzoquinone (TMBQ) or other quinones were sequentially added into the buffer in dark. The oxygen evolution rate was measured under the light with corresponding excitation wave length for LEAT proteins and light intensity at 1-2 μmol m^−2 s^−1.

B1: efasCFP: cyan fluorescent protein from Eusmilia fastigiata (DQ206397), SEQ ID NO: 36 (protein, listed as Echinopora forskaliana)
chain: MSFSKQVLNDVTMTYFMEGSVNGHDFTIEGEGTGKPYEGHQRFNLRVTKGAPLPFAVDILSAAFAYGNRCFTKYPKEIPDFFKQSLPEDMSWERTMTFEDGGIVAISAHIRLIGNRFEHKSKFVGVNFPADGPVMQRKTLGWEPSSEKMTPRDGILKGYVPSFLVLQGGGNYRCDYDTSYRAMKPVEMPGGHFIQHRIVRRDIKKDSNGNTWQIQEDAFAHNSEVPDSA
Consider B1, for which the O2 evolution activity entry is reported as “+”.

B2: phiYFP: yellow fluorescent protein from Phialidium sp. SL-2003 (AY485333), SEQ ID NO: 50 (protein)
chain: MSSGALLFHGKIPYVVEMEGNVDGHTFSIRGKGYGDASVGKVDAQFICTTGDVPVPWSTLVTTLTYGAQCFAKYGPELKDFYKSCMPEGYVQERTITFEGDGVFKTRAEVTFENGSVYNRVKLNGQGFKKDGHVLGKNLEFNFTPHCLYIWGDQANHGLKSAFKIMHEITGSKEDFIVADHTQMNTPIGGGPVHVPEYHHITYHVTLSKDVTDHRDNMSLVETVRAVDCRKTYL
modifications: Aequorea Victoria
For B2, the O2 evolution activity result was “++”.

B3: cpGFP: green fluorescent protein from Chiridius poppei (AB185173), SEQ ID NO: 52 (protein, listed as Chiridius poppei)
chain: MTTFKIESRIHGNLNGEKFELVGGGVGEEGRLEIEMKTKDKPLAFSPFLLSHCMGYGFYHFASFPKGTKNIYLHAATNGGYTNTRKEIYEDGGILEVNFRYTYEFNKIIGDVECIGHGFPSQSPIFKDTIVKSCPTVDLMLPMSGNIIASSYARAFQLKDGSFYTAEVKNNIDFKNPIHESFSKSGPMFTHRRVEETHTKENLAMVEYQQVFNSAPRDM
Regarding B3, the O2 evolution activity result is reported as “+”.

B4: rmueGFP: green fluorescent protein from Renilla muelleri (AY015996), SEQ ID NO: 44 (protein, listed as Renilla muelleri)
chain: MSKQILKNTCLQEVMSYKVNLEGIVNNHVFTMEGCGKGNILFGNQLVQIRVTKGAPLPFAFDIVSPAFQYGNRTFTKYPNDISDYFIQSFPAGFMYERTLRYEDGGLVEIRSDINLIEDKFVYRVEYKGSNFPDDGPVMQKTILGIEPSFEAMYMNNGVLVGEVILVYKLNSGKYYSCHMKTLMKSKGVVKEFPSYHFIQHRLEKTYVEDGGFVEQHETAIAQMTSIGKPLGSLHEWV
As to B4, the O2 evolution activity result is recorded as “++”.

B5: scubGFP: green fluorescent protein from Scolymia cubensis (AY037767), SEQ ID NO: 40 (protein, listed as Echinopora forskaliana)
chain: MQRAGMKVKEHMKIKLRMGGTVNGKHFAVNGTGDGYPYQGKQILKLIVEGSEPLPFAFDILSAAFQYGNRAFTEYPTEIADYFKQSFEFGEGFSWERSFTFEDGAICVATNDITMVGGEFQYDIRFDGLNFPEDGPVMQKKTVKWEPSTEIMYMQNGVLKGEVNMALLLQDKSHYRCDLKTTYKAKNNVPHPPGYHYVDHCIEILEERKDHVKLREHAKARSSLSPTSAKERKA
As to B5, the O2 evolution activity result was “+”.

B6: hcriCP: chromoprotein from Heteractis crispa (AF363776), SEQ ID NO: 32 (protein)
chain: MAGLLKESMRIKMYMEGTVNGHYFKCEGEGDGNPFTGTQSMRIHVTEGAPLPFAFDILAPCCEYGSRTFVHHTAEIPDFFKQSFPEGFTWERTTTYEDGGILTAHQDTSLEGNCLIYKVKVLGTNFPADGPVMKNKSGGWEPCTEVVYPENGVLCGRNVMALKVGDRRLICHLYTSYRSKKAVRALTMPGFHFTDIRLQMPRKKKDEYFELYEASVARYSDLPEKAN
modifications: Entacmaea quadricolor
As to B6, the O2 evolution activity entry is “+”.

B7: spisCP: non-fluorescent chromoprotein from Stylophora pistillata (DQ206398), SEQ ID NO: 38 (protein, listed as Echinopora forskaliana)
chain: MSHSKQALADTMKMTWLMEGSVNGHAFTIEGEGTGKPYEGKQSGTFRVTKGGPLPFAFDIVAPTLKYGFKCFMKYPADIPDYFKLAFPEGLTYDRKIAFEDGGCATATVEMSLKGNTLVHKTNFQGGNFPIDGPVMQKRTLGWEPTSEKMTPCDGIIKGDTIMYLMVEGGKTLKCRYENNYRANKPVLMPPSHFVDLRLTRTNLDKEGLAFKLEEYAVARVLEV
In the case of B7, the O2 evolution activity entry was “++”.

B8: rfloRFP: red fluorescent protein from Ricordea florida (AY037773), SEQ ID NO: 42 (protein, listed as Ricordea florida)
chain: MSALKEEMKIKLTLVGVVNGHPFKIIGDGKGKPYEGSQELTLAVVEGGPLPFSYDILTTIVHYGNRAFVNYPKDIPDIFKQTCSGPGAGYSWQRTMSFEDGGVCTATSHIRVDGDTFNYDIHFMGADFPLNGPVMQKRTVKWEPSTEIMFQCDGLLRGDVAMSLLLKGGGHYRCDFKTIYKPKKNVKMPGYHFVDHCIEITSQQDDYNVVELYEGAVAHYSPLQKPCQAKA
With B8, the O2 evolution activity result was “++”.

B9: anm2CP: chromoprotein from Anthomedusae sp. SL-2003 (AY485336), SEQ ID NO: 48 (protein, listed as Anthomedusae sp.)
chain: MEGGPALFQSDMTFKIFIDGVVNDQKFTIIADGSSKFPHGDFNVHAVCETGKLPMSWKPICHLIQYGEPFFAKYPNGISHFAQECFPEGLTIDRTVRFENDGTMTSHHTYELDGTCVISRITVNCDGFQPDGPIMKDQLVDILPTETHMFPHGSNAVRQLCYIGFTTADGGLMMSHFDSKLTFNGSRAIKIPGPHFVTVIIKQMKDTSDKRDHVCQREVTYAHSVPRITSAI
As for B9, the O2 evolution activity result is reported as “+”.

B10: efofCP/RFP: protein from Echinopora forskaliana (EU498726), SEQ ID NO: 34 (protein, listed as Echinopora forskaliana)
chain: MSVIKQVMKTKLHLEGTVNGHDFTIEGKGEGKPYEGLQHMKMTVTKGAPLPFSVHILTPSHMYGSKPFNKYPADIPDYHKQSFPEGMSWERSMIFEDGGVCTASNHSSINLQENCFIYDVKFHGVNLPPDGPVMQKTIAGWEPSVETLYVRDGMLKSDTAMVFKLKGGGHHRVDFKTTYKAKKPVKLPEFHFVEHRLELTKHDKDFTTWDQQEAAEGHFSPLPKALP
As for B10, the O2 evolution activity entry is reported as “+”.

B11: ceriantRFP: red fluorescent protein from Cerianthus sp. DW-2003 (AY296063), SEQ ID NO: 46 (protein, listed as Cerianthus sp.)
chain: MNLSKNVSVSVYMKGNVNNHEFEYDGEGGGDPYTGKYSMKMTLRGQNCLPFSYDIITTAFQYGFRVFTKYPEGIVDYFKDSLPDAFQWNRRIVFEDGGVLNMSSDITYKDNVLHGDVWAVGVNFPPNGPVMKNEIVMEEPTEETFTPKNGVLVGFCPKAYLLKDGSYYYGNMTTFYRSKKSGQAPPGYHFVKHRLVKTNVGHGFKTVEQTEYATAHVSDLPK
Turning to B11, the O2 evolution activity result was “++”.
